Biological target: human DC-SIGN (CD209), expressed on 293T cells (human) (UniProt Q9NNX6)
Test: cell-based or functional assay

Chain of UniProt Q9NNX6 (Q9NNX6 whole entry): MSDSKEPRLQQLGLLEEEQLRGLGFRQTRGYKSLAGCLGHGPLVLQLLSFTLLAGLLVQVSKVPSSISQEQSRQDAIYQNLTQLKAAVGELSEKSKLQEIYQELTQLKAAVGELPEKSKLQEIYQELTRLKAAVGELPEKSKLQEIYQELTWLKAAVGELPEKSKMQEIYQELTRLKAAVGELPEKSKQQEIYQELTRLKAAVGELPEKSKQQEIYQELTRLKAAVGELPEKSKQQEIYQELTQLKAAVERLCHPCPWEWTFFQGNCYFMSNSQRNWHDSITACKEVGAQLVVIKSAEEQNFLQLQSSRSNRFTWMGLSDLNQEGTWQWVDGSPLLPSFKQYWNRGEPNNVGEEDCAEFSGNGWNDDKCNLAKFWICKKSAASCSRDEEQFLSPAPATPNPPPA

| Substance | GFU/mL on 293-hDC-SIGN cells (transduction titer) [GFU/mL] | Ratio (GFU/mL on 293-hDC-SIGN cells over 293T cells) | GFU/mL on hDC-SIGN cells (transduction titer) [GFU/mL] | Ratio (GFU/mL on hDC-SIGN cells over 293T cells) |
| --- | --- | --- | --- | --- |
| Sindbis virus HR strain envelope E2 glycoprotein, on pseudotyped lentiviral vector particles (from UniProt P03316 329-751) | 6.4e+06 | 9.4 |  |  |
| VSV-G envelope glycoprotein, on pseudotyped lentiviral vector particles (from UniProt P03522 17-511) |  |  | 1.35e+08 | 1.19 |
